# Experimental data published in US20110189209A1 (GOVERNMENT OF THE UNITED STATES OF AMERICA AS REPRESENTED …, published 2011).
# B1: biscFv(C207) (other)
# chain: DFVMSQSPSSLAVSVGERVTMSCKSSQSLLYFSNRKNYLAWYQQKPGQSPKLLINWASTRESGVPDRFTGSGSRTDFTLTISSVKAEDLAVYFCQQFYSYPPTFGGGTKLEIKGGGGSGGGGSGGGGSQVQLQQSEAELARPGASVKMSCKASGYTFTDYTIHWLRQKPGQGLDWIGYFNPSSGSTEYNRKFKDRTILTADRSSTTVYMQLSSLTSEDSAVYYCARKGEKLLGNRYWYFDVWGAGTSVTVSSGGGGSGGGGSGGGGSDFVMSQSPSSLAVSVGERVTMSCKSSQSLLYFSNRKNYLAWYQQKPGQSPKLLINWASTRESGVPDRFTGSGSRTDFTLTISSVKAEDLAVYFCQQFYSYPPTFGGGTKLEIKGGGGSGGGGSGGGGSQVQLQQSEAELARPGASVKMSCKASGYTFTDYTIHWLRQKPGQGLDWIGYFNPSSGSTEYNRKFKDRTILTADRSSTTVYMQLSSLTSEDSAVYYCARKGEKLLGNRYWYFDVWGAGTSVTVSS
# B2: Db(C207) (other)
# chain: DFVMSQSPSSLAVSVGERVTMSCKSSQSLLYFSNRKNYLAWYQQKPGQSPKLLINWASTRESGVPDRFTGSGSRTDFTLTISSVKAEDLAVYFCQQFYSYPPTFGGGTKLEIKGGGGSQVQLQQSEAELARPGASVKMSCKASGYTFTDYTIHWLRQKPGQGLDWIGYFNPSSGSTEYNRKFKDRTILTADRSSTTVYMQLSSLTSEDSAVYYCARKGEKLLGNRYWYFDVWGAGTSVTVSS
# notes: also called diabody of C207; diabody (C207)
# B3: scFv(C207) (scFv)
# scFv: DFVMSQSPSSLAVSVGERVTMSCKSSQSLLYFSNRKNYLAWYQQKPGQSPKLLINWASTRESGVPDRFTGSGSRTDFTLTISSVKAEDLAVYFCQQFYSYPPTFGGGTKLEIKGGGGSGGGGSGGGGSQVQLQQSEAELARPGASVKMSCKASGYTFTDYTIHWLRQKPGQGLDWIGYFNPSSGSTEYNRKFKDRTILTADRSSTTVYMQLSSLTSEDSAVYYCARKGEKLLGNRYWYFDVWGAGTSVTVSS
# Legend:
# [1] = target: human CD3 on Jurkat cells (human) (UniProt P07766); assay: competitive binding on Jurkat cells, competitor at 1 nM, tracer 125I-UCHT1
# [2] = target: human CD3 on Jurkat cells (human) (UniProt P07766); assay: competitive binding on Jurkat cells, competitor at 100 nM, tracer 125I-UCHT1
# [3] = target: T1, monkey CD3 on HSC-F monkey T cells (cynomolgus monkey, UniProt Q95LI5 22-198); assay: competition with FN18-FITC on HSC-F cells, flow cytometry, replicate assays
# T1 construct: whole, on cells; also called monkey CD3ε
# [4] = target: T1, monkey CD3 on HSC-F monkey T cells; assay: competition with FITC-labeled FN18 tracer (5x10^-9 M) for binding to HSC-F monkey T cells, flow cytometry, 4 C
# T1 sequence (Q95LI5 22-198): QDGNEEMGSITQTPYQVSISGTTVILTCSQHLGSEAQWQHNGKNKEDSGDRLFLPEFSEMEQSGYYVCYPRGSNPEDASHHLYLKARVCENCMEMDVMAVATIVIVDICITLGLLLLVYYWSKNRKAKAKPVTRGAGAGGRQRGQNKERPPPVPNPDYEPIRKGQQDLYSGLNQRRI
Molecule,% of 125I-UCHT1 bound to Jurkat cells [1] [%],% of 125I-UCHT1 bound to Jurkat cells [2] [%],also measured
UCHT1 (antibody),80,0,
scUCHT1 (from UniProt P01871 106-453) (Fc fusion),80,0,
B1,,,"ratio of concentrations at equal displacement, biscFv(C207)/scFv(C207) [3]: 2.5 fold"
B2,,,"ratio of concentrations at equal displacement, Db(C207)/scFv(C207) [3]: 7 fold"
B3,,,IC50 (read off the curve) [4]: ~2 nM
